{"source": "paper PMC3702667", "target": "RNA polymerase II;RECQL5 1-620 D157A (human;human, UniProt P24928;P30876;P19387;O15514;P19388;P61218;P62487;P52434;P36954;P62875;P52435;P53 …, |D157A)", "sequence (O94762 1-620 D157A, one chain of several)": "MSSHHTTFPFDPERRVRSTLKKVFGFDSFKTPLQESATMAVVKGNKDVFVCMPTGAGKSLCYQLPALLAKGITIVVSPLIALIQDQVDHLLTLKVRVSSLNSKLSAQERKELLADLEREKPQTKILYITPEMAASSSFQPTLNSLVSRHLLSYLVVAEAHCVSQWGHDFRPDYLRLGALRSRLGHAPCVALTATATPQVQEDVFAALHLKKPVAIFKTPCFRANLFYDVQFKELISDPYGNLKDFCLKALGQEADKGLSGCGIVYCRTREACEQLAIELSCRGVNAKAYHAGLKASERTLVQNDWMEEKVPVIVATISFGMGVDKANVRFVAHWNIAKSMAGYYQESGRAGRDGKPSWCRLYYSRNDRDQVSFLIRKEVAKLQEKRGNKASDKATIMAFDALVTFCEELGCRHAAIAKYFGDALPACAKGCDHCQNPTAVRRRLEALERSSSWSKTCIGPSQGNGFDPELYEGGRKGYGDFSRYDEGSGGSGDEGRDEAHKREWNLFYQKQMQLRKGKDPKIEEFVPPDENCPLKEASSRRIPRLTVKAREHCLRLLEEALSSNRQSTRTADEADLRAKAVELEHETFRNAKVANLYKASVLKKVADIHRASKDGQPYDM", "experiment": "cryo-EM"}
{"binder": "artificial transcription bubble (template DNA, nontemplate DNA, RNA) (mixed) DNA 1: CTCAAGTACTTACGCCTGGTCATTACTA DNA 2: TAGTAAACTAGTATTGAAAGTACTTGAGCTTAGACAGCATGTC RNA: UAUAUGCAUAAAGACCAGGC", "values": [{"measurement": "binding result", "result": "binds"}]}
